Measured values taken from US20220251236A1 (Boehringer Ingelheim, published 2022).
Residue numbers refer to the chain shown, from its start.

T1: FLAG-tagged human DLL1 full length (human, UniProt O00548 1-723)
T1 construct: also called human DLL1 on HEK293 cells
T1 sequence: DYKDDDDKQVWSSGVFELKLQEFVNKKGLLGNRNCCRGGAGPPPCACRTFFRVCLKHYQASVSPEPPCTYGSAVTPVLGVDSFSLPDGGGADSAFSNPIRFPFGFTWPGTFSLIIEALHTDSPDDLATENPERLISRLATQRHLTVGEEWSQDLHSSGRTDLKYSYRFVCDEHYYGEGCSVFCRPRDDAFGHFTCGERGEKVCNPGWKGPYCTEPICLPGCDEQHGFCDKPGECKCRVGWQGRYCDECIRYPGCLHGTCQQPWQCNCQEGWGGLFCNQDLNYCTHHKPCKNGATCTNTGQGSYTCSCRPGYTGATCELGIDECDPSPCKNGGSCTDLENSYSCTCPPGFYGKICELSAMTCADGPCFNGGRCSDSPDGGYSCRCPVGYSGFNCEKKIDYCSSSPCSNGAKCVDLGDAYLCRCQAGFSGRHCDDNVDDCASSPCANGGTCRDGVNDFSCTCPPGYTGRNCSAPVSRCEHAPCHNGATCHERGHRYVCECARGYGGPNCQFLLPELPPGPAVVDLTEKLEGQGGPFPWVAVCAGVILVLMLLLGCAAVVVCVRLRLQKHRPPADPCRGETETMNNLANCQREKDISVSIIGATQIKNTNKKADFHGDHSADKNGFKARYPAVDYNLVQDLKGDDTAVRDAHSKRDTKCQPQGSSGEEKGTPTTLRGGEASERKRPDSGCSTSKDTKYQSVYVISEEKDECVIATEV

T2: human DLL3 (endogenous, on SCLC cell lines NCI-H82 and SHP77 and in SCLC tissue) (human, UniProt Q9NYJ7 27-618)
T2 sequence (looked up): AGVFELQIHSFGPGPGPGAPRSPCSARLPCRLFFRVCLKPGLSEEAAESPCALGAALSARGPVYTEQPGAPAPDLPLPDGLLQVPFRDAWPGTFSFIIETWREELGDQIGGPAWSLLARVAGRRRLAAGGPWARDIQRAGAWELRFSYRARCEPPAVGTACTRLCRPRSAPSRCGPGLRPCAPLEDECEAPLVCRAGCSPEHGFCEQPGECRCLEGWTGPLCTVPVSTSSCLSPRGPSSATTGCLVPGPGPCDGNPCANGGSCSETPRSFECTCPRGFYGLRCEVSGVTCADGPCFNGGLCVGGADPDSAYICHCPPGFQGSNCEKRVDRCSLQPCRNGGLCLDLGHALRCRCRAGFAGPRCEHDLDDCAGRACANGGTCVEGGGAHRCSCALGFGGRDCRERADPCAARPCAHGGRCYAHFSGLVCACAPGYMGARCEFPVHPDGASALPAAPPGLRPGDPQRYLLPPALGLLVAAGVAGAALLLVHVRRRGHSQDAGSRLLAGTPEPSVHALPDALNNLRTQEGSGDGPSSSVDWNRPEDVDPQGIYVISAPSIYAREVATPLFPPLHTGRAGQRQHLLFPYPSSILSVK

T3: Human DLL3-His (human, UniProt Q9NYJ7 27-492)
T3 construct: also called huDLL3-His; hu DLL3
T3 sequence: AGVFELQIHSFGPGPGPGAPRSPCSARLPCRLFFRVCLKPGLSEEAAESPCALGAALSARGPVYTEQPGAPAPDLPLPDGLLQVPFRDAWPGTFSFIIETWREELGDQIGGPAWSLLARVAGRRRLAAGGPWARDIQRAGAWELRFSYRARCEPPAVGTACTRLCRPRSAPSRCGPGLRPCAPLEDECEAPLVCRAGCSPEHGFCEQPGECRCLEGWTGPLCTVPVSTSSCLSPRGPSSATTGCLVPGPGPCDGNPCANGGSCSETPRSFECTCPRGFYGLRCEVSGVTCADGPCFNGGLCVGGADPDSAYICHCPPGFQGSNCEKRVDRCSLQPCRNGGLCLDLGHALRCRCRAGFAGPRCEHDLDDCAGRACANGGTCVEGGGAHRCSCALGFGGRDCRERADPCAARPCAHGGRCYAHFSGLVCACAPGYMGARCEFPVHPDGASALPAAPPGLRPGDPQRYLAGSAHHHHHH

B1: DLL3#3/CD3#1 (bispecific antibody, human IgG1, kappa, lambda, L234A L235A)
chain 1: DIQMTQSPSAMSASVGDRVTITCRASQGISNYLVWFQQKPGKAPKRLIYAVSSLYSGVPSRFSGSGSGTEFTLTISSLQPEDFATYYCLQHDSYPYTFGQGTKLEIKRTVAAPSVFIFPPSDEQLKSGTASVVCLLNNFYPREAKVQWKVDNALQSGNSQESVTEQDSKDSTYSLSSTLTLSKADYEKHKVYACEVTHQGLSSPVTKSFNRGECGGGGSEGKSSGSGSESKSTEGKSSGSGSESKSTGGGGSQVQLVQSGAEVKKPGASVKVSCKASGYTFTSYYVHWVRQAPGQGLEWMVIINPGGGTTSYAQKFLGRVTMTRDTSTNTVYMELKSLRSEDTAVYYCARGEAVTGNYFYYGMDVWGQGTTVTVSSASTKGPSVFPLAPSSKSTSGGTAALGCLVKDYFPEPVTVSWNSGALTSGVHTFPAVLQSSGLYSLSSVVTVPSSSLGTQTYICNVNHKPSNTKVDKRVEPKSCDKTHTCPPCPAPEAAGGPSVFLFPPKPKDTLMISRTPEVTCVVVDVSHEDPEVKFNWYVDGVEVHNAKTKPREEQYNSTYRVVSVLTVLHQDWLNGKEYKCKVSNKALPAPIEKTISKAKGQPREPQVYTLPPSREEMTKNQVSLWCLVKGFYPSDIAVEWESNGQPENNYKTTPPVLDSDGSFFLYSKLTVDKSRWQQGNVFSCSVMHEALHNHYTQKSLSLSPG
chain 2: EAVVTQEPSLTVSPGGTVTLTCRSSTGAVTTSNYANWVQEKPGQLPRGLIGGTNKRAPWVPARFSGSLLGGKAALTLSGAQPEDEAEYFCALWYSNLWVFGGGTKLTVLGQPKAAPSVTLFPPSSEELQANKATLVCLISDFYPGAVKVAWKADGSPVNTGVETTTPSKQSNNKYAASSYLSLTPEQWKSHRSYSCQVTHEGSTVEKTVAPAECSGGGGSEGKSSGSGSESKSTEGKSSGSGSESKSTGGGGSEVQLVESGGGLVQPGGSLKLSCAASGFTFNTYAMNWVRQAPGKGLEWVARIRSKYNNYATYYADSVKDRFTISRDDSKNTAYLQMNNLKTEDTAVYYCVRHGNFGNSYVSWFAYWGQGTLVTVSAASTKGPSVFPLAPSSKSTSGGTAALGCLVKDYFPEPVTVSWNSGALTSGVHTFPAVLQSSGLYSLSSVVTVPSSSLGTQTYICNVNHKPSNTKVDKRVEPKSCDKTHTCPPCPAPEAAGGPSVFLFPPKPKDTLMISRTPEVTCVVVDVSHEDPEVKFNWYVDGVEVHNAKTKPREEQYNSTYRVVSVLTVLHQDWLNGKEYKCKVSNKALPAPIEKTISKAKGQPREPQVYTLPPSREEMTKNQVSLSCAVKGFYPSDIAVEWESNGQPENNYKTTPPVLDSDGSFFLVSKLTVDKSRWQQGNVFSCSVMHEALHNRFTQKSLSLSPG
notes: Heterodimer of one DLL3 chain and one CD3 chain (scFab-Fc, knob-in-hole)
B2: DLL3#4/CD3#1 (bispecific antibody, human IgG1, kappa, lambda, L234A L235A)
chain 1: not shown
chain 2: B1 chain 2
notes: as for B1
B3: DLL3#5/CD3#1 (bispecific antibody, human IgG1, kappa, lambda, L234A L235A)
chain 1: not shown
chain 2: B1 chain 2
notes: as for B1
B4: DLL3#3/CD3#2 (bispecific antibody, human IgG1, kappa, lambda, L234A L235A)
chain 1: B1 chain 1
chain 2: B1 chain 2 with N309I
notes: as for B1

Tests used:
[1] = biological target: T4, trypsin inhibitor from glycine max soybean (Glycine max (soybean)); assay: SPR (Biacore T200), trypsin inhibitor on CM5 chip, sample at 1 µM
T4 construct: also called Tryp
Excerpt: To prepare the surface for the non-specific binding experiment, chicken egg white lysozyme and trypsin inhibitor from glycine max soybean were coupled manually to a series S CM5 chip with the surface density of 3000-5000 RU using the amine coupling kit according to the manufacture instructions.

[2] = biological target: T1, FLAG-tagged human DLL1 full length; assay: flow cytometry on HEK293 cells expressing human DLL1 (HEK293-huDLL1), PE anti-human secondary, control: secondary antibody only
Experimental: Bound molecules were detected with PE-conjugated anti-human secondary antibody (Sigma-Aldrich, #P8047). As negative control, cells were incubated with secondary antibody only. The samples were measured by flow-cytometry.

[3] = biological target: T2, human DLL3 (endogenous, on SCLC cell …); assay: cell-based or functional assay
Human DLL3-His = biological target: T3, Human DLL3-His; assay: SPR (ProteOn XPR36), bispecific captured on protein A/G, hu DLL3 as analyte, Example 4B
In short: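 Bispecific constructs captured on protein A/G for 200 s at 30 μl/min, baseline stabilized with PBS-T-EDTA. Human DLL3 analyte injected 300 s at 30 μl/min; dissociation followed for 1800 s.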

[4] = biological target: T2, human DLL3 (endogenous, on SCLC cell …); assay: flow cytometry titration on SHP77 cells, PE anti-human secondary, x-fold over background
Excerpt: (§1) Cells (T cells or human SCLC cells) were stained with increasing concentrations of two-step purified DLL3/CD3 binding proteins with increasing concentrations in FACS buffer (PBS/0.5% BSA/0.05% sodium azide). Bound molecules were detected with PE-conjugated anti-human secondary antibody (Sigma-Aldrich, #P8047).

[5] = biological target: T2, human DLL3 (endogenous, on SCLC cell …); assay: flow cytometry titration on NCI-H82 cells, PE anti-human secondary, x-fold over background
Excerpt: as §1

T4 sequence (P01070 25-205): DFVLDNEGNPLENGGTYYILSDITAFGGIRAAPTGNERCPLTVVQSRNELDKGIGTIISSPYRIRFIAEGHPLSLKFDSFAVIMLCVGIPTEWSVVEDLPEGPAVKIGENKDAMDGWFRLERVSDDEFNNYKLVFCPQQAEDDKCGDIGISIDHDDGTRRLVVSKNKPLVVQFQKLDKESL

Row | Binder | Non-specific binding (RU) [1] | binding result [2] | EC90, 72 hour cytotoxicity assay, purified T cells as effector cells, NCI-H82 target cells [3] | EC90, 72 hour cytotoxicity assay, purified T cells as effector cells, SHP77 target cells [3] | Kd (Human DLL3-His) | EC50 (read off the curve) [4] | EC50 (read off the curve) [5]
1 | B1 | 85 RU | no binding (tested: 1.6 nM) | 0.27 nM | 0.02 nM | 0.075 nM |  | 
2 | B2 | 37 RU | no binding (tested: 1.6 nM) |  |  | < 0.02 nM | ~0.3 nM | ~1 nM
3 | B3 | 0 RU | no binding (tested: 1.6 nM) |  |  | < 0.02 nM | ~1 nM | ~5 nM
4 | B4 | 36 RU | no binding (tested: 1.6 nM) | 2.5 nM | 3 nM | 0.12 nM |  | 
